Data on one molecule can be found in patent publication US20100322946A1 (Genentech, published 2010).

In assay [1] the target is T1, VEGF109 (receptor-binding domain of human VEGF, residues 8-109) (human, UniProt P15692 214-315).
T1 construct: also called hVEGF109
T1 sequence (looked up): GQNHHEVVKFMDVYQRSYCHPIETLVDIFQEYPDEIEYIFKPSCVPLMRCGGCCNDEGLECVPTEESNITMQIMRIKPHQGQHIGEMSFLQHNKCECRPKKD
Description: calculated from ΔStot, ΔSdesolv and ΔSrt.

Assay [2] addresses T1, VEGF109 (receptor-binding domain of …). The assay is described as follows: calculated from ΔCp.
For assay [3] the target is unchanged. The assay is described as follows: isothermal titration calorimetry. A general note: ITC needs no label: the signal is the heat of the interaction.
The target is the same in assay [4]. Description: calculated from the SPR KD.

B1: bH1-44 Fab (Fab, V domains shown)
VH: EVQLVESGGGLVQPGGSLRLSCAASGFNISGTYIHWVRQAPGKGLEWVARIYPSEGYTRYADSVKGRFTISADTSKNTAYLQMNSLRAEDTAVYYCSRWVGVGFYAMDYWGQGTLVTVSS
VL: DIQMTQSPSSLSASVGDRVTITCRASQNIAKTISGYVAWYQQKPGKAPKLLIYWGSFLYSGVPSRFSGSGSGTDFTLTISSLQPEDFATYYCQQHYSSPPTFGQGTKVEIKR
notes: also called bH-44
Turning to B1, the ΔSconf in assay [1] is -7.2e-05 kcal/mol. Moreover, the ΔSdesolv in assay [2] is 9.6e-05 kcal/mol. The molecule also yielded a ΔH in assay [3] of -7.1 kcal/mol. Besides, the ΔG in assay [4] was -11.8 kcal/mol.
